Measurements: patent CN114397452A (dated 2022)

Columns and labels:
冠状病毒RaTG13 RBD蛋白 = 冠状病毒RaTG13 RBD蛋白 (coronavirus RaTG13)
SARS-CoV RBD蛋白 = SARS-CoV RBD蛋白 (SARS-CoV, UniProt P59594 306-527)

B1: IMCAS-72 scFv (scFv, V domains shown)
VH: QVQLVESGGGLVQPGGSLRLSCAASGFTFSSYGMHWVRQAPGKGLEWVAVISYDGSDKYYADSVKGRFTISRDNSKNTLYLQMNSLRAEDTAVYYCARDRDRFGDQGGWFDPWGQGTLVTVSS
VL: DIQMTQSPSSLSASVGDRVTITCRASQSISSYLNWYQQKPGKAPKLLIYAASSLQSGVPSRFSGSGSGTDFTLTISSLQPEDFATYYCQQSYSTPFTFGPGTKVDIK
B1 showed a Kd (冠状病毒RaTG13 RBD蛋白) of 6.21 nM.

B2: IMCAS-364 scFv (scFv, V domains shown)
VH: QVQLQESGGGVVQPGRSLRLSCAASGFTFSRYGMHWVRQAPGKGLEWVAVIWYDGSNKYYADSVKGRFTISRDNSKNTLYLQMNSLRADDTAVYYCAKQEGTYCSGGSCYSGLDYWGQGTLVTVSS
VL: not shown
B2 showed a Kd (SARS-CoV RBD蛋白) of 8.17 nM.
